Assay results published in the supplement of paper PMC10724198.
± gives the standard deviation of the averaged measurements.

System: Saccharomyces cerevisiae
Experiment: protein stability index of tFT-peptide fusion (C-terminal peptide) (PSI (0-1 scale)); higher = more stable (slower turnover)
Settings: temperature: 30 C
Experimental: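 MPS profiling in S. cerevisiae of the yeast C-terminome library: the last 12 aa of each annotated ORF are fused to the C-terminus of a sfGFP-mCherry timer, after a GGGS linker. Cells are FACS-sorted into 8 mCherry/sfGFP bins and deep-sequenced. PSI runs from 0 (unstable) to 1 (stable); wild type and das1Δ backgrounds, two technical replicates each.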

[1] = genetic background: das1 deletion

Sequence | protein stability index [1] | protein stability index (genetic background: wild type)
AYSLQEGSVVAI [SIF2 C-terminal 12 aa] | 0.7139 ± 0.0064 | 0.696 ± 0.047
CDSEMFASSKDE [ERI1 C-terminal 12 aa] | 0.698 ± 0.0072 | 0.74 ± 0.053
CFPDDIFEYAVE [GLG1 C-terminal 12 aa] | 0.768 ± 0.015 | 0.76 ± 0.0098
CGKCHSVYKVNA [RPS31 C-terminal 12 aa] | 0.70314 ± 0.00059 | 0.624 ± 0.041
CGLDGKIVIYTI [ARC40 C-terminal 12 aa] | 0.6819 ± 0.0035 | 0.6704 ± 0.0027
CKSNKKHKQRQG [RTC6 C-terminal 12 aa] | 0.701 ± 0.031 | 0.601 ± 0.02
CKTLNYARPQSN [BNA1 C-terminal 12 aa] | 0.6906 ± 0.0025 | 0.727 ± 0.031
CNNVLYIRELPN [SMX3 C-terminal 12 aa] | 0.689 ± 0.016 | 0.6801 ± 0.0029
CPSVEEIANETE [GCV2 C-terminal 12 aa] | 0.696 ± 0.013 | 0.653 ± 0.0098
CVAGAHFESLLD [YNL144W-A C-terminal 12 aa] | 0.702 ± 0.0074 | 0.744 ± 0.03
CVVGTLGSDLKS [YPR150W C-terminal 12 aa] | 0.7093 ± 0.0042 | 0.697 ± 0.014
DAEGQENAASSE [RIM1 C-terminal 12 aa] | 0.67571 ± 0.00047 | 0.67 ± 0.0069
DATSTLSSQPLD [MSP1 C-terminal 12 aa] | 0.7244 ± 0.0059 | 0.695 ± 0.037
DCGWVSDAYKNH [LCL2 C-terminal 12 aa] | 0.735 ± 0.019 | 0.724 ± 0.043
DDDEEDEIVEVA [HGH1 C-terminal 12 aa] | 0.698 ± 0.033 | 0.6572 ± 0.0019
DDDGDYFEHDEL [KAR2 C-terminal 12 aa] | 0.688 ± 0.017 | 0.6679 ± 0.00099
DDGDSDSWDTNW [CEX1 C-terminal 12 aa] | 0.701 ± 0.024 | 0.702 ± 0.014
DDQDAISNQEKK [EIS1 C-terminal 12 aa] | 0.712 ± 0.057 | 0.701 ± 0.038
DDRPIYKRFFSS [HXT9 C-terminal 12 aa] | 0.7117 ± 0.0052 | 0.654 ± 0.023
DEDDGMIIGSLW [AEP2 C-terminal 12 aa] | 0.7004 ± 0.0057 | 0.708 ± 0.013
DEELHPLSDEGM [DPP1 C-terminal 12 aa] | 0.691 ± 0.011 | 0.726 ± 0.061

Sequence | protein stability index [1] | protein stability index (genetic background: wild type)
DEEREDDNYVPQ [CBC2 C-terminal 12 aa] | 0.689 ± 0.028 | 0.671 ± 0.022
DEKVKKMVENLQ [TRS23 C-terminal 12 aa] | 0.7295 ± 0.0065 | 0.738 ± 0.077
DFLTLVQTNSDT [YPL250W-A C-terminal 12 aa] | 0.712 ± 0.0071 | 0.722 ± 0.038
DFNSKSKKKNDK [MIN6 C-terminal 12 aa] | 0.697 ± 0.024 | 0.6535 ± 0.0044
DGPGLNNFGITL [BMT2 C-terminal 12 aa] | 0.6975 ± 0.00032 | 0.699 ± 0.035
DIEINDDLNGVL [VPS41 C-terminal 12 aa] | 0.653 ± 0.016 | 0.708 ± 0.053
DIFEDSSDEEQS [SPL2 C-terminal 12 aa] | 0.7179 ± 0.00076 | 0.727 ± 0.084
DKHEQPQIESPK [CFD1 C-terminal 12 aa] | 0.7 ± 0.026 | 0.684 ± 0.021
DKKLEEQLRDLV [MTC3 C-terminal 12 aa] | 0.6866 ± 0.0029 | 0.689 ± 0.052
DKSTFGLSPVKI [GRS2 C-terminal 12 aa] | 0.691 ± 0.033 | 0.666 ± 0.0084
DLDFLGSDIEFE [HFM1 C-terminal 12 aa] | 0.718 ± 0.016 | 0.7077 ± 0.002
DLESLTAKLIQG [HCA4 C-terminal 12 aa] | 0.7 ± 0.022 | 0.67282 ± 0.00041
DLIDDKTNRGRR [PRP2 C-terminal 12 aa] | 0.696 ± 0.029 | 0.697 ± 0.023
DLIKEHSKDIQV [HCH1 C-terminal 12 aa] | 0.6872 ± 0.0016 | 0.691 ± 0.012
DMEMEAIAAERD [HMF1 C-terminal 12 aa] | 0.714 ± 0.03 | 0.706 ± 0.031
DNLKYSLDCDFS [BGL2 C-terminal 12 aa] | 0.709 ± 0.023 | 0.666 ± 0.0075
DNRPIYKRFFSS [HXT11 C-terminal 12 aa] | 0.7072 ± 0.0066 | 0.511 ± 0.018
DNTKESKDVKMN [RTT102 C-terminal 12 aa] | 0.6878 ± 0.004 | 0.673 ± 0.081
DNTTKHSSNVHT [YER079W C-terminal 12 aa] | 0.668 ± 0.014 | 0.667 ± 0.0093
DNVEQRVLKQYM [EMC3 C-terminal 12 aa] | 0.6864 ± 0.0062 | 0.651 ± 0.0092
DPLYYVYCLHMP [NAT4 C-terminal 12 aa] | 0.6582 ± 0.0016 | 0.643 ± 0.0089
